Reference: publication PMC12275187, “CpgD is a phosphoglycerate cytidylyltransferase required for ceramide diphosphoglycerate synthesis” (The Journal of Biological Chemistry, 2025)

T1: CpgD (CCNA_01210) (Caulobacter vibrioides, UniProt A0A0H3C7D9)
T1 construct: expressed in E. coli ER2566; primers encode N-terminus MQPVKT, C-terminus EAEAV
T1 sequence (A0A0H3C7D9 1-253): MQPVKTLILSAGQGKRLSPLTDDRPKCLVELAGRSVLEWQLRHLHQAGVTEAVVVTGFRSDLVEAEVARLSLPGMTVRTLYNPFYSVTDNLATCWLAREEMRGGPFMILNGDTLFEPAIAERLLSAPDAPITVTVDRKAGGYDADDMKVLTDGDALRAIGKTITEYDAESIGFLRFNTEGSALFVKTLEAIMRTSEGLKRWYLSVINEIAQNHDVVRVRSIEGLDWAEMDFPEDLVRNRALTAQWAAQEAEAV

B1: CpgD (CCNA_01210) (Caulobacter vibrioides NA1000) (protein)
chain: T1 sequence (A0A0H3C7D9 1-253)
notes: expressed in E. coli ER2566; primers encode N-terminus MQPVKT, C-terminus EAEAV

How the values were obtained:
[1] = target: T1, CpgD (CCNA_01210); assay: thermal shift assay (GloMelt dye); format: binding; details: 10 mM nucleotide, 50 mM MgCl2, 50 mM HEPES pH 7.5; Tm change only in figure
[2] = substrate: O=C(O)[C@@H](CO)OP(=O)(O)O; assay: HPAEC quantification of CDP-glycerate; format: biochemical, Caulobacter vibrioides; details: 10 mM CTP, 50 mM MgCl2, 50 mM HEPES pH 7.5, 45 min; pH 7.5
Source text: (§1) HPAEC quantification of CDP-glycerate on CpgD (CCNA_01210)

[3] = substrate: O=C(O)[C@H](O)COP(=O)(O)O; assay: HPAEC quantification of CDP-glycerate; format: biochemical, Caulobacter vibrioides; details: 10 mM CTP, 50 mM MgCl2, 50 mM Tris pH 8.0, 3.5 h; pH 8.0
Source text: as §1

[4] = substrate: Nc1ccn([C@@H]2O[C@H](COP(=O)(O)OP(=O)(O)OP(=O)(O)O)[C@@H](O)[C@H]2O)c(=O)n1; assay: HPAEC quantification of CDP-glycerate; format: biochemical, Caulobacter vibrioides
Source text: as §1

[5] = substrate: O=C(O)[C@H](CO)OP(=O)(O)O; assay: HPAEC quantification of CDP-glycerate; format: biochemical, Caulobacter vibrioides; details: 10 mM CTP, 50 mM MgCl2, 50 mM HEPES pH 7.5, 45 min; pH 7.5
Source text: as §1

[6] = 10 mM 3-phosphoglycerate, 50 mM MgCl2, 50 mM Tris pH 8.0, 3.5 h, Michaelis-Menten fit, pH 8.0
[7] = 10 mM D-2-phosphoglycerate, 50 mM MgCl2, 50 mM HEPES pH 7.5, 45 min, Hill fit, cooperative (Hill coefficient 2.5), pH 7.5

Molecule | Tm [1] | Km [2] | Vmax [2] | Km [3] | Vmax [3] | Km [4, 6] | Vmax [4, 6] | K0.5 [4, 7] | Vmax [4, 7] | Km [5] | Vmax [5]
Nc1ccn([C@@H]2O[C@H](COP(=O)(O)OP(=O)(O)OP(=O)(O)O)[C@@H](O)[C@H]2O)c(=O)n1 [CTP] | increase in the melting temperature of the protein was only observed upon addition of CTP |  |  |  |  |  |  |  |  |  | 
Nc1ncnc2c1ncn2[C@@H]1O[C@H](COP(=O)(O)OP(=O)(O)OP(=O)(O)O)[C@@H](O)[C@H]1O [ATP] | we consistently measured a lower melting temperature in the presence of ATP |  |  |  |  |  |  |  |  |  | 
B1 |  | 0.84 ± 0.16 mM | 3.2 µmol/min/mg | 10.9 ± 0.7 mM | 0.72 µmol/min/mg | 4.8 ± 0.9 mM | 0.4 µmol/min/mg | 6.4 ± 0.8 mM | 3.6 µmol/min/mg | 3.1 ± 0.6 mM | 1.5 µmol/min/mg
